According to doi:10.64898/2025.12.09.693204 (bioRxiv, 2025):

Molecular target: Homo sapiens importin-β (Homo sapiens, UniProt Q14974 1-876)
Assay: partitioning into phase-separated condensates

Chain of Homo sapiens importin-β (Q14974 whole entry): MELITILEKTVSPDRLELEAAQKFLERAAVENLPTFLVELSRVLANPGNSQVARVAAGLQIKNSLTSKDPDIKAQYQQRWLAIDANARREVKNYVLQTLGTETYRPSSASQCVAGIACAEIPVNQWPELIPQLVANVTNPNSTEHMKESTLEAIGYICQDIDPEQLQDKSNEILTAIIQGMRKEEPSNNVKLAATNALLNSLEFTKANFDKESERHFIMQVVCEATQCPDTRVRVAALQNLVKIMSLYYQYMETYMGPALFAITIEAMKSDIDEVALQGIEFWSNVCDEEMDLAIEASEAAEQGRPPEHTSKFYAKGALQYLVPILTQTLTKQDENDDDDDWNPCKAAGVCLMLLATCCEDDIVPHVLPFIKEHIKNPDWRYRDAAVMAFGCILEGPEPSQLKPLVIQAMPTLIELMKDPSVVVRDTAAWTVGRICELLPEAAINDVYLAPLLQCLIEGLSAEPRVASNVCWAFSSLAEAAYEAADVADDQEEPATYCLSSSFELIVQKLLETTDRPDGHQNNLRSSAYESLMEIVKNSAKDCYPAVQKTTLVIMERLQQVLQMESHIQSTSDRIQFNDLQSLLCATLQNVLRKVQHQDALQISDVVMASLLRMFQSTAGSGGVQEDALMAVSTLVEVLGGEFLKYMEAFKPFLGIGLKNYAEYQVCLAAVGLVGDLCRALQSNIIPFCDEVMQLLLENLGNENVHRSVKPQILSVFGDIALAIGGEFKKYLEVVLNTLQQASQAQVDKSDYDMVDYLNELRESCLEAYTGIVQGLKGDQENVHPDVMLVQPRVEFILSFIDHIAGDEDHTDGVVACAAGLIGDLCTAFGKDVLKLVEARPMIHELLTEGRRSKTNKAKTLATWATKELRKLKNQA

B1: Homo sapiens NUP98 FG domain (residues 1-505, GLEBS domain residues 157-213 excluded) (domain or fragment, UniProt P52948 1-505, looked up)
chain: MFNKSFGTPFGGGTGGFGTTSTFGQNTGFGTTSGGAFGTSAFGSSNNTGGLFGNSQTKPGGLFGTSSFSQPATSTSTGFGFGTSTGTANTLFGTASTGTSLFSSQNNAFAQNKPTGFGNFGTSTSSGGLFGTTNTTSNPFGSTSGSLFGPSSFTAAGPQNQVGAGTTTGLFGSSPATSSATGLFSSSTTNSGFAYGQNKTAFGTSTTGFGTNPGGLFGQQNQQTTSLFSKPFGQATTTQNTGFSFGNTSTIGQPSTNTMGLFGVTQASQPGGLFGTATNTSTGTAFGTGTGLFGQTNTGFGAVGSTLFGNNKLTTFGSSTTSAPSFGTTSGGLFGNKPTLTLGTNTNTSNFGFGTNTSGNSIFGSKPAPGTLGTGLGAGFGTALGAGQASLFGNNQPKIGGPLGTGAFGAPGFNTTTATLGFGAPQAPVALTDPNASAAQQAVLQQHI
binding result: binds
